T1: KW27-2 (human CD39 mutant, C-terminal EGFP) (human, UniProt P49961 1-510)
T1 construct: expressed on HEK293F cells; not shown: C-terminal EGFP fusion (vector pCMV3-GFPSpark)
T1 chain: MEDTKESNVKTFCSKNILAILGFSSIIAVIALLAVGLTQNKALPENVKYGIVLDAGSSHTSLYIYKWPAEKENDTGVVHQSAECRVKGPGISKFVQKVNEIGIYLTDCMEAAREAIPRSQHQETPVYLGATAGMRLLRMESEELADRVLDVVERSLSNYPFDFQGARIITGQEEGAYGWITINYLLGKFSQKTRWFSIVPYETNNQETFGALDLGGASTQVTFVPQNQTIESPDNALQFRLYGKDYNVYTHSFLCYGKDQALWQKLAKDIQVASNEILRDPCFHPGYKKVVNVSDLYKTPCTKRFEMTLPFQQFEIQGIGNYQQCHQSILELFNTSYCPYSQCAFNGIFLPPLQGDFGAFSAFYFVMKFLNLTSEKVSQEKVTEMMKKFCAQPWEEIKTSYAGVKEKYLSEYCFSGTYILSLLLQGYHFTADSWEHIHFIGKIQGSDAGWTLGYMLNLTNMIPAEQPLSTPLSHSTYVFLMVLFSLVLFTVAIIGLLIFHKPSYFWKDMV

T2: KW27-20 (human CD39 mutant, C-terminal EGFP) (human, UniProt P49961 1-510)
T2 construct: expressed on HEK293F cells; not shown: C-terminal EGFP fusion (vector pCMV3-GFPSpark)
T2 chain: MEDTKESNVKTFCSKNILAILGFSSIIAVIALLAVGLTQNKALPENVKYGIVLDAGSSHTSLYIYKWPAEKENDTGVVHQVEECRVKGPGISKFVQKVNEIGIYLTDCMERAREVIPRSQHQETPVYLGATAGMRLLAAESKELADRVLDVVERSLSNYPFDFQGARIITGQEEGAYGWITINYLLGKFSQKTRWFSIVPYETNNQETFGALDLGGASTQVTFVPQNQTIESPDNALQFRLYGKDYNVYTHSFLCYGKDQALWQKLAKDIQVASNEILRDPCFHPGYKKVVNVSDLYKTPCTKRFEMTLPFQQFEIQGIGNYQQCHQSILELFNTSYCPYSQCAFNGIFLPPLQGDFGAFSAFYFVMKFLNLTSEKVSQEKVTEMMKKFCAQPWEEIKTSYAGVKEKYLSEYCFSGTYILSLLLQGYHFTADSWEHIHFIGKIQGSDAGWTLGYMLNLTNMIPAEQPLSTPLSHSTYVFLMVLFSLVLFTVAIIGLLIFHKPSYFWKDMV

T3: human CD39 (full length, on cells) (human, UniProt P49961 1-510)
T3 construct: Recombinant on CHOK1-hCD39 cells or natural on SK-MEL-28, SK-MEL-5 and MOLP-8 cells; the cell line is named under assay; also called hCD39; ENTPD1
T3 sequence: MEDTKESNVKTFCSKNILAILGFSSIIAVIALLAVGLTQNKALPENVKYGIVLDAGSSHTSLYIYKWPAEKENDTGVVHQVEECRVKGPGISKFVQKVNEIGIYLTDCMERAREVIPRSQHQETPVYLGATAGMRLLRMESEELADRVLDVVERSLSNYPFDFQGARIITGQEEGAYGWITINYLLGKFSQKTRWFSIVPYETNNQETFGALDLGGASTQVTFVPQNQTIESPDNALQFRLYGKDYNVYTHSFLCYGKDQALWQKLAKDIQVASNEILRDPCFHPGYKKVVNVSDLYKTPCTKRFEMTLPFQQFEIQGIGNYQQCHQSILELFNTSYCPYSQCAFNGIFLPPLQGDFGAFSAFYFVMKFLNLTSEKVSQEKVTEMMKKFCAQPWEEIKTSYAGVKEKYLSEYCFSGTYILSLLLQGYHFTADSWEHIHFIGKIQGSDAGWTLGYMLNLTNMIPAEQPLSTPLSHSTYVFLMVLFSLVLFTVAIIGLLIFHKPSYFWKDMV


Assays:
[1] = target: T1, KW27-2 (human CD39 mutant, C-terminal …); test: FACS, mutant-EGFP on HEK293F cells
How it was run: (§1)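 Relative binding, the ratio of AlexaFluor647 to GFP signal, was read by flow cytometry with labelled anti-hIgG. Antibody ran as an 11-point, 3-fold series starting at 100 nM. Targets were CD39 mutant–GFP fusions expressed transiently in HEK293F cells for 3 days.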

[2] = target: T2, KW27-20 (human CD39 mutant, C-terminal …); test: FACS, mutant-EGFP on HEK293F cells
How it was run: as §1

[3] = target: T3, human CD39 (full length, on cells); test: FACS, MOLP-8 cells
How it was run: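 MOLP-8 cells expressing human CD39 were incubated 30 min at 4 °C with graded concentrations of anti-CD39 antibody. Binding was detected with a fluorescent anti-mouse or anti-human IgG secondary (30 min, 4 °C) and flow cytometry. EC50 is the antibody concentration reaching 50% of the signal.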

| Binder | binding result [1] | binding result [2] | EC50 [3] [nM] |
| --- | --- | --- | --- |
| c35 (antibody, V domains shown, its making is not described; also called chimeric antibody c35) VH: EVRLQQSGAELVKPGASVKLSCTASGFNIEDTYVHWMKQRPEQGLEWIGRIDPAIDNSKYDPKFQGKATITAVSSSNTAYLQLSSLTSEDTAVYYCALYDGYNVYAMDYWGQGTSVTVSS VL: DIVMTQAAFSNPVTLGTSASISCRSSKNLLHSNGITYLYWYLQRPGQSPQLLIYRASTLASGVPNRFSGSESGTDFTLRISRVEAEDVGVYYCAQLLELPHTFGGGTKLEIK | no binding (tested: 100 nM highest concentration) | – | – |
| hu23.H5L5 (antibody, V domains shown, humanized c23) VH: QVQLVQSGAEVKKPGASVKVSCKASGYNLKDTFLHWVRQAPGQGLEWMGRIDPANGNIKYDPKFQGRVTITADTSANTAYMELISLRSEDTAVYYCANSPYYYGSGYRIFDVWGQGTTVTVSS VL: QIVLTQSPATLSLSPGERATLSCSAFSSVNYMHWYQQKPGQAPRLLIYTTSNLASGIPTRFSGSGSGTSYTLTISSLEPEDFAVYYCQQRSTYPFTFGQGTKLEIK | – | no binding (tested: 100 nM highest concentration) | 0.177 |

— patent US20210388105A1 (ELPISCIENCE SUZHOU BIOPHARMA, published 2021)
